Measurements published in the supplement of paper PMC9170038.

Tested on: MS2 coat protein
Experiment: apparent KD of MS2 coat protein; designed switch direction (-1 OFF switch, 1 ON switch): 1; higher = weaker reporter binding
In short: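 Three titration conditions were used: no input, 200 uM small-molecule ligand, and an oligonucleotide input. In each, SNAP-549-labelled MS2 coat protein was raised from 0.7 or 1.5 nM, doubling, to 3 µM over designed RNA switches transcribed on Illumina chips by stalled E. coli RNA polymerase. Curve fits of normalised cluster fluorescence gave values whose per-design median over clusters is the apparent KD.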

[1] = Eterna round: R95, input ligand: FMN 200 uM
[2] = Eterna round: R95, input ligand: microRNA oligo, concentration not stated
[3] = Eterna round: R95, input ligand: none
[4] = input ligand: microRNA oligo, concentration not stated

Sequence | apparent KD of MS2 coat protein [1] | apparent KD of MS2 coat protein [2] | apparent KD of MS2 coat protein [3] | apparent KD of MS2 coat protein (input ligand: FMN 200 uM) | apparent KD of MS2 coat protein [4] | apparent KD of MS2 coat protein (input ligand: none)
GGAGAACAUGAGGAUCACCCAUGUAAGAGAGUUGUAGGAUAUGUGAGGAGCAGAGGAUGAACAGAAGGACAUGGAG [JR_SS!_Sub070] (puzzle: Same State 1) | 42 nM | 49.3 nM | 56.4 nM | – | – | –
GGAGAGAGAGCACAGGAUAUGCGAGGAGAGACAUGAGGAUCACCCAUGUAAGAGAGAGAGGAGAGGUAGAAGGGUGAGAGAGAGG [Altered State 2-21 - Jieux - Same State 2] (puzzle: Same State 2) | 150 nM | 62.7 nM | 92.3 nM | – | – | –
GGAGAGAGAGCGGAGGAUAUUCAAGGAGAGACAUGAGGAUCACCCAUGUAAGAGAGAGAGGAGAGGAAGAAGGCUGAGAGAGAGG [Altered State 2-10 - Jieux - Same State 2] (puzzle: Same State 2) | 32.1 nM | 26.9 nM | 42.8 nM | – | – | –
GGAGCCAAGGCAGGAUAUUCAUUUAAAUAAACAUGAGGAUCACCCAUGUAGGCCAGAAGGCCUUGGGAGAAGGGCCAUGGCUCG [Xeonanis - 13 mod7] (Eterna round: R96, puzzle: Same State NG 2) | – | – | – | 17.7 nM | 72.8 nM | 88.1 nM
GGAGCCGGCACCGAGGAUAUUCAUAUUAAAACAUGAGGAUCACCCAUGUAGAGCAGAAGCUCUUGGGAGAAGGCGGAUCGGCUCG [Xeonanis - 27] (puzzle: Same State 2) | 28.4 nM | 306 nM | 549 nM | – | – | –
GGAGCCGGCACUGAGGAUAUUCAUAAUAAAACAUGAGGAUCACCCAUGUAGGCCAGAAGGCCUUGGGAGAAGGCAGGUCGGCUCA [Mat - Same State 2 - Mod of UCT - D66] (puzzle: Same State 2) | 18.3 nM | 153 nM | 217 nM | – | – | –
GGAGCCGGCACUGAGGAUAUUCAUAUUAAAACAUGAGGAUCACCCAUGUAGGCCAGAAGGCCUUGGGAGAAGGCGGGUCGGCCCG [Bibimoar - 3] (Eterna round: R96, puzzle: Same State 2) | – | – | – | 22.1 nM | 222 nM | 258 nM
GGAGCCGGCACUGAGGAUAUUCAUAUUAAAACAUGAGGAUCACCCAUGUAGGCCAGAAGGCCUUGGGAGAAGGCGGGUCGGCCCG [Bibimoar - 3] (puzzle: Same State 2) | 27.2 nM | 360 nM | 647 nM | – | – | –
GGAGCCGGCCUAGGAUAUUUCAUAAUAAAACAUGAGGAUCACCCAUGUAGGCCAGAAGGCCUUGGGAAGAAGGAGGUCGGCUCC [Loop Effect - U26] (Eterna round: R96, puzzle: Same State NG 2) | – | – | – | 12.1 nM | 30.2 nM | 47 nM
GGAGCUGUUAUAGGAUAUCCCGCUCAUUACGCGGGAGAAGGGUGACGCUCACAUGAGGAUCACCCAUGUGGCGUUCCAAAAUAA [Reesti] (Eterna round: R96, puzzle: Same State NG 1) | – | – | – | 8.43 nM | 7.1 nM | 12.6 nM
GGAGGACAUGAGGAUCACCCAUGUGGAUGAUCGCUAGGAUAUGCGUGCGGGAGGAGUGGUGCAGAAGGAGUGGGAU [JR_SS1_Sub049] (puzzle: Same State 1) | – | 188 nM | – | – | – | –
GGAGGACAUGAGGAUCACCCAUGUGGAUGGGCGCUAGGAUAUGCGAGAGGGUGGAGAGAAGCAGAAGGAGUGGAUA [JR_SS1_Sub038] (puzzle: Same State 1) | 76.7 nM | 62.9 nM | 75 nM | – | – | –
GGAGGGAGGGCGCAGGAUAUCGAUAAUGACACAUGAGGAUCACCCAUGUUUGGUAUUAGAAGGAACGAGAAGGGUGAGAGGAGGG [red_knee_arm] (puzzle: Same State 2) | 36.1 nM | 35.1 nM | 53.2 nM | – | – | –
GGAUCGGAGGCAGGAUAUGGGCUCAGAACAUGAGGAUCACCCAUGUAAAACGGCGCAAUGCGCCACCAGAAGGGCCUCCGACCG [Inmadibi] (Eterna round: R96, puzzle: Same State NG 2) | – | – | – | 8.62 nM | 17.8 nM | 44.7 nM
GGAUGAUAGACAGGAUAUUGAUUGUAAUUAUGUCAAGAAGGGUCUUUGAUUUAAACGACCAGUUACAUGAGGAUCACCCAUGUU [JR_SSNG1_Sub029] (Eterna round: R96, puzzle: Same State NG 1) | – | – | – | – | 24.1 nM | –
GGAUGAUUAAUAGGAUAUUAGUUGUAAAAUGUUUAAGAAGGAUUAAUGAUUUAAACGACCAGUUACAUGAGGAUCACCCAUGUU [JR_SSNG1_Sub093] (Eterna round: R96, puzzle: Same State NG 1) | – | – | – | – | 20.6 nM | –

Sequence | apparent KD of MS2 coat protein [1] | apparent KD of MS2 coat protein [2] | apparent KD of MS2 coat protein [3] | apparent KD of MS2 coat protein (input ligand: FMN 200 uM) | apparent KD of MS2 coat protein [4] | apparent KD of MS2 coat protein (input ligand: none)
GGCACAAAAGCACAGGAUAUGCAAAAGAACACAUGAGGAUCACCCAUGUAGCCUAAUAAAGGGCAGCAGAAGGGUGGGACUGCCA [Quaat] (puzzle: Same State 2) | 74.5 nM | 239 nM | 239 nM | – | – | –
GGCAUGCGGCGUACCGUAUGCUGGUAUGUACAUGAGGAUCACCCAUGUCAUGUACAGGCUUGUUGCUCGUCUUAUUG [JL-shm-2.41 JL mod] (puzzle: Sensor for hsa-mir-208a) | 137 nM | 34.3 nM | 158 nM | – | – | –
GGCGAAUAAACAUGAGGAUCACCCAUGUAGCGGAGACGCAAUGAGGAUAUCGAUGGGUUUCCCGUCGAGAAGGCAUGGGUCGCC [JL SSNG3 3.93 mod 1] (Eterna round: R96, puzzle: Same State NG 3) | – | – | – | 20.8 nM | 99.6 nM | 140 nM
GGCUAGCCUCAAGGAUAUACGCUCUCAACAAAGAACCGACUACAUGAGGAUCACCCAUGUACCAUGUAGAAGGUGAGGUUAGCC [Eternabot solution 4] (Eterna round: R96, puzzle: Same State NG 2) | – | – | – | – | 397 nM | –
GGGAGAGACGUAGGAUAUGGAAGAAGAUAGAGACUAGAAGGGUGAACAUGAGAAUCGAAGUGUAAAGUGAGAUGAGGUGGGAGA [iteri-1] (Eterna round: R96, puzzle: Same State NG 1) | – | – | – | 26.5 nM | 16.9 nM | 36.9 nM
GGGCAGAGGGACAAGGAUAUGUCAGGAGAGACAUGAGGAUCACCCAUGUGGAGGUUGGAGCAGAGACAGAAGGUGUACGGAGCGA [JR_SS2_Sub011] (puzzle: Same State 2) | 34.4 nM | 105 nM | 107 nM | – | – | –
GGGUAGAUUUGAGGAUAUCCUUAACCAACAUGAGGAUCACCCAUGUCCAAAAGAGUUCAUUUACCGGAGAAGGCAGAUGCACCC [Eternabot solution 50] (Eterna round: R96, puzzle: Same State NG 2) | – | – | – | 74.7 nM | 61.4 nM | 86.4 nM
GGUAAGAAUUAAGGAUAUUGAUUACAUAUGUUUAACAUGAGGAUCACCCAUGUGGGUUGCGGUAUCGAGAAGGUAAAAUAAUAG [Mat - same State NG 2 - JL mod - D83] (Eterna round: R96, puzzle: Same State NG 2) | – | – | – | 145 nM | 170 nM | 170 nM
GGUACAGUUACAGGAUAUGCUAUCCUUUGGGUAGCAGAAGGGUGGUAACAUGAGGAUCACCCAUGUGUGCCAGGGCGUGAGCCC [JL SSNG1 1.99] (Eterna round: R96, puzzle: Same State NG 1) | – | – | – | 502 nM | 387 nM | 700 nM
GGUACAUGAGGAUCACCCAUGUCAAAGGCACCGUGCAGACUGGAGGAUAUCACAGCAGAAAGCUGUGAGAAGGCCGUGUAAGCG [Eternabot solution 17] (Eterna round: R96, puzzle: Same State NG 3) | – | – | – | 17.4 nM | 24.6 nM | 42.9 nM
GGUAGGUUACUACCAAACAUGAGGAUCACCCAUGUAAAUGGGAAGGAUAUGGUACCUAUUUGGUACCAGAAGGUCCAAUUAAUU [JL Fiskers NG3ss - 2 mod 2] (Eterna round: R96, puzzle: Same State NG 3) | – | – | – | 670 nM | 1720 nM | 4550 nM
GGUAGGUUACUACCAAACAUGAGGAUCACCCAUGUAAGUGGGAAGGAUAUGGUACCGUUUCGGUACCAGAAGGUCCAUAUAGUA [JL Fiskers NG3ss - 2 mod 11] (Eterna round: R96, puzzle: Same State NG 3) | – | – | – | 232 nM | 658 nM | 1530 nM
GGUAGGUUACUACCAAACAUGAGGAUCACCCAUGUAAGUGGGAAGGAUAUGGUACCUAAAAGGUACCAGAAGGUCCAAUUAAUU [Mat - Same State NG 3 - JL Mod - D98] (Eterna round: R96, puzzle: Same State NG 3) | – | – | – | 188 nM | 436 nM | 584 nM
GGUAUCGGCACAGGAUAUGCUAUCCUUUGGGUAGCAGAAGGGUGGAACAUGAGGAUCACCCAUGUGGUGCCAGGGCGUGAGCCC [JL SSNG1 1.88] (Eterna round: R96, puzzle: Same State NG 1) | – | – | – | 586 nM | 125 nM | 909 nM
GGUAUGGACACAGGAUAUGCUUACGAAACGUAAGCAGAAGGGUGAACAUGAGGAUCACCCAUGUACGUACCAGGGCGUGAGCCC [JL SSNG1 1.76] (Eterna round: R96, puzzle: Same State NG 1) | – | – | – | 440 nM | 157 nM | 92.4 nM
